Results reported in the RNAGym collection of RNA variant scans (doi:10.1073/pnas.2313332121).

B1: TPR t1 (parent)
chain: GACCAAUCUGCCCUCAGAGCUCGAGAACAUCUUCGGAUGCAGAGGAGGCAGGCUUCGGUGGCGCGAUAGCGCCAACGUCCUCAACCUCCAAUGCAUCCCACCACAUGAUGAUGCCUGAAGAGCCUUGGUUUUUUG

Variants of: B1
Experiment: polymerase ribozyme fitness, log enrichment relative to wild type (log ratio); higher = more active; in vitro selection for triplet polymerase activity
In short: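 After PCR construction and transcription, each subunit's mutant library from a heterodimeric triplet polymerase ribozyme was annealed with a biotinylated primer, the partner subunit and triplets. Incubation was frozen, at −7 °C, and extended constructs were gel-excised, bound to streptavidin beads and amplified by RT-PCR, in one selection round done in triplicate. Fitness is the logarithm of a genotype's enrichment divided by that of the wild type, from inverse-variance-weighted replicate averages of Illumina-sequenced inputs and outputs. The base of the logarithm is 2, and genotypes needed ≥10 input reads and ≥1 read per output.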

| Variant | polymerase ribozyme fitness (log ratio) |
| --- | --- |
| G48C C85A | -2.11 |
| G48C C94G C115U | -3.03 |
| G48C C97G | -4.14 |
| G48C C101A G117A | -2.54 |
| G48C C104U | -0.793 |
| G48C G52U G60A U109A G110U | -6.29 |
| G48C G60A G93A | -0.836 |
| G48C G61C | -2.06 |
| G48C G61C C123G | -0.406 |
| G48C G63A G113U C123A | -5.64 |
| G48C G71A | -1.65 |
| G48C G71U | -2.47 |
| G48C G77U C89U C123U | -0.348 |
| G48C G93A C99A G113C | -7.38 |
| G48C G110A | -1.41 |
| G48C G135U | -1.05 |
| G48C U59C A83C C114A | -2.11 |
| G48C U87A | -1.01 |
| G48U A50G G61A C89U | -1.81 |
| G48U A74U | -0.741 |
| G48U A83U C85U | -0.796 |

| Variant | polymerase ribozyme fitness (log ratio) |
| --- | --- |
| G48U A84G U116C | -1.79 |
| G48U A95U A105U U125A | -4.37 |
| G48U C49A C89G | -3.48 |
| G48U C49U A91C | -2.49 |
| G48U C49U G60C A84U U129A U134G | -1.92 |
| G48U C53U G93C | -1.66 |
| G48U C53U U92C A100U C101U C124A U131G | -2.57 |
| G48U C56A | -1.75 |
| G48U C56G C72U C86G | -2.89 |
| G48U C56U | -0.606 |
| G48U C56U C70U A84G A91U | -4.84 |
| G48U C70A | -2.08 |
| G48U C70G | -4.24 |
| G48U C70U | -1.39 |
| G48U C72A C97G | -5.25 |
| G48U C72A G113C | -2.2 |
| G48U C72G C86A U125G G127C | -4.47 |
| G48U C72U C76U A105U | -3.61 |
| G48U C73G A95G | -1.55 |
| G48U C73U | -1.06 |
| G48U C79G | -3.52 |

| Variant | polymerase ribozyme fitness (log ratio) |
| --- | --- |
| G48U C79U G135C | -1.81 |
| G48U C82G U92G | -4.41 |
| G48U C86A C115U G120C | -2.47 |
| G48U C88A | -0.373 |
| G48U C88G U96A | -3.43 |
| G48U C88U | -1.36 |
| G48U C89A U130A | -2.33 |
| G48U C89U C124G G128A | -0.497 |
| G48U C101U | -1.59 |
| G48U C102U | -3.66 |
| G48U C104U | -0.515 |
| G48U C114G G117C G120C | -6.82 |
| G48U G52U C73U A90U C124G | -1.99 |
| G48U G52U C98U G117U | -6.54 |
| G48U G52U G63C | -2.05 |
| G48U G57A C62U U78C C114A U133G | -3.01 |
| G48U G57A C101U C124G | 0.412 |
| G48U G57U C76G U78A G117A | -2.42 |
| G48U G61A C89A A119U | -2.48 |
| G48U G61U C88U G110A | -1.73 |
| G48U G61U G93U U112A C124A | -0.694 |

| Variant | polymerase ribozyme fitness (log ratio) |
| --- | --- |
| G48U G61U G113A | -1.24 |
| G48U G61U U112C | 1.56 |
| G48U G63A C79G | -6.13 |
| G48U G69A | -3.02 |
| G48U G69A U87A | -6.61 |
| G48U G69U | -0.529 |
| G48U G71A C123A U126A | -2.04 |
| G48U G71C | -1.77 |
| G48U G93C A121G | 0.759 |
| G48U G120C | -0.358 |
| G48U U54G U129A | -1.88 |
| G48U U55G G69A | -2.77 |
| G48U U55G G69C G93U | -2.93 |
| G48U U78C U92A A105U A121U | -5.76 |
| G48U U81G A91G G117U A119U | -7.47 |
| G48U U87G U133G | -0.334 |
| G48U U112C A118U | 0.638 |
| C49A A50C C56A C79A U132A | -3.18 |
| C49A A50G G52U A118U | 0.379 |
| C49A A74G | -0.173 |
